Assays:
recombinant CD135 (Flt3) [1] = molecular target: recombinant CD135 (Flt3) (UniProt Q00342); experiment: ELISA
recombinant CD135 (Flt3) [2] = molecular target: T1, recombinant CD135 (Flt3) (UniProt Q00342 28-544); experiment: ELISA
T1 sequence (looked up): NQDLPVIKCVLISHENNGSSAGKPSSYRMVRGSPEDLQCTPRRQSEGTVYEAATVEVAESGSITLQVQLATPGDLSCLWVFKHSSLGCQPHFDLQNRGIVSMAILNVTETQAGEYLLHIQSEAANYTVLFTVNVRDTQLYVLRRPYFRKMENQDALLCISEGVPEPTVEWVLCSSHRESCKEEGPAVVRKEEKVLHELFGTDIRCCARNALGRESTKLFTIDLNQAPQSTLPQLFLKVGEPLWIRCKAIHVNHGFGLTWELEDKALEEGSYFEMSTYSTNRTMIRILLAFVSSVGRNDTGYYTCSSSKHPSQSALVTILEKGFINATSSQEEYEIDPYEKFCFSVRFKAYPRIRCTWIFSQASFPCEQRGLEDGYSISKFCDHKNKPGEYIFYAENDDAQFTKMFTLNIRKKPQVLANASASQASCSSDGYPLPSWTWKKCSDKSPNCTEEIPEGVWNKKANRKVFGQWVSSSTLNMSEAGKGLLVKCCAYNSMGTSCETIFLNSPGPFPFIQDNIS

Molecule	Kd (recombinant CD135 (Flt3) [1]) [nM]	Kd (recombinant CD135 (Flt3) [2]) [nM]
Flt3L-SA (murine Flt3L fused at its C terminus to murine serum albumin through a (G4S)2 linker)	0.16	
native, soluble murine Flt3L (WT) (ligand, mouse, UniProt P49772 27-189, looked up) GTPDCYFSHSPISSNFKVKFRELTDHLLKDYPVTVAVNLQDEKHCKALWSLFLAQRWIEQLKTVAGSKMQTLLEDVNTEIHFVTSCTFQPLPECLRFVQTNISHLLKDTCTQLLALKPCIGKACQNFSRCLEVQCQPDSSTLLPPRSPIALEATELPEPRPRQ		0.16

From doi:10.1101/2024.03.21.586168 (bioRxiv, 2024)
